Results reported in patent US10011657B2, “Anti-CS1 antibodies and antibody drug conjugates” (AbbVie Biotherapeutics Inc., priority 2014, dated 2018).

B1: Elotuzumab: monoclonal humanized IgG1 anti-CS1 antibody disclosed as HuLuc63 in U.S. Pat. No. 7,709,610 (antibody, V domains shown)
VH: EVQLVESGGGLVQPGGSLRLSCAASGFDFSRYWMSWVRQAPGKGLEWIGEINPDSSTINYAPSLKDKFIISRDNAKNSLYLQMNSLRAEDTAVYYCARPDGNYWYFDVWGQGTLVTVSS
VL: DIQMTQSPSSLSASVGDRVTITCKASQDVGIAVAWYQQKPGKVPKLLIYWASTRHTGVPDRFSGSGSGTDFTLTISSLQPEDVATYYCQQYSSYPYTFGQGTKVEIKR
B2: Hu27A12: humanized anti-CS1 antibody, VH SEQ ID NO: 24, VL SEQ ID NO: 26 (antibody, V domains shown)
VH: EVQLVESGGGLVQPGGSLRLSCAASGFTFSDYYMAWVRQAPGKGLEWVAEINYDGSSTYYVDSVKGRFTISRDNAKNSLYLQMNSLRAEDTAVYYCARDRGFYFDYWGQGTTVTVSS
VL: DVVMTQTPLSLSVTPGQPASISCRSSQSLVHNNGNTYLHWYLQKPGQSPQLLIYKVSNRFSGVPDRFSGSGSGTDFTLKISRVEAEDVGVYFCSQSTHVPPYTFGGGTKVEIK
B3: Hu31D2: humanized anti-CS1 antibody, VH SEQ ID NO: 16, VL SEQ ID NO: 19 (antibody, V domains shown)
VH: EVQLVESGGGLVQPGGSLRLSCAASGFTFSDYYMAWVRQAPGKGLEWVADINYDGGSTYYLDSLKSRFTISRDNAKNSLYLQMNSLRAEDTAVYYCARDRGYYFDYWGQGTLVTVSS
VL: DVVMTQSPLSLPVTPGEPASISCRSSQSLVHSNGNTYLHWYLQKPGQSPQLLIYKVSNRFSGVPDRFSGSGSGTDFTLKISRVEAEDVGVYFCSQSTHVPPFTFGGGTKVEIK

Experiments:
[1] = system: relapsed or refractory multiple myeloma; details: elotuzumab added to lenalidomide and dexamethasone vs lenalidomide and dexamethasone control group; cited from earlier work
human CS1 [2] = biological target: T1, human CS1 (Homo sapiens, UniProt Q9NQ25); test: Flow-cytometry competition assay with AF488-labeled PDL241 (humanized antibodies, Example 5); assay type: binding; details: 293s cells transfected with human CS1; 50 μg/mL test antibody, 5 μg/mL labeled PDL241
T1 construct: expressed in transfected cells; host or cells: 293s cells
T1 sequence (Q9NQ25 23-335): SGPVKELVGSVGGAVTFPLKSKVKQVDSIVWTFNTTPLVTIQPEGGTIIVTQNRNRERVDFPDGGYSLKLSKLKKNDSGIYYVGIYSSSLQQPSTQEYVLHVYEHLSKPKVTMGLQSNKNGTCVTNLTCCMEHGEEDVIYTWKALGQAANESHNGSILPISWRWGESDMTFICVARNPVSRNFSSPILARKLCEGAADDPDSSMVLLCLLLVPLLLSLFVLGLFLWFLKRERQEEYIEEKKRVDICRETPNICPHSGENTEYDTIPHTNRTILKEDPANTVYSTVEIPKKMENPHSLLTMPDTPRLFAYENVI
Method: 293s cells transfected with human CS1 were incubated at various concentrations with an AF488 labeled PDL241 antibody. […] Transfected 293s cells (300,000 cells per data point) were incubated for 30 min (on ice) with a tenfold excess of unlabeled test antibody (50 μg/mL). After the incubation, 5 μg/mL of AF488-labeled PDL241 was added to the cells and incubated on ice for 30 minutes. After this incubation, the cells were washed with PBS+1% FBS and binding of AF488-labeled PDL241 was determine by flow cytometry.

HuCS1 = biological target: T2, HuCS1 (Homo sapiens, UniProt Q9NQ25); test: Flow-cytometry competition assay with AF488-labeled Luc34.3.8 on L-363 cells; assay type: binding; details: 20 μg/mL test antibody, 2 μg/mL labeled Luc34.3.8
T2 construct: L-363 cells (human multiple myeloma cell line) expressing HuCS1; endogenous in cells; host or cells: L-363 human multiple myeloma cell line
T2 sequence (Q9NQ25 23-335): as above
Method: A similar experiment was conducted with AF488-labeled Luc34.3.8 at 2 μg/mL. L-363 cells (human multiple myeloma cell line) expressing HuCS1 (300,000 cells per data point) was incubated for 30 min (on ice) with a tenfold excess of unlabeled test antibody (20 μg/mL). After the incubation, 2 μg/mL of AF488-labeled Luc34.3.8 was added to the cells and incubated on ice for 30 minutes. After this incubation, the cells were washed with PBS+1% FBS, and binding of AF488-labeled […] determined by flow cytometry.

human CS1 [3] = biological target: T1, human CS1; test: Flow-cytometry competition assay with AF488-labeled elotuzumab; assay type: binding; details: 293s cells transfected with human CS1; 100 μg/mL test antibody, 10 μg/mL labeled elotuzumab
Method: A similar experiment was conducted with AF488-labeled elotuzumab at 10 μg/mL. Transfected 293s cells (300,000 cells per data point) were incubated for 30 min (on ice) with a tenfold excess of unlabeled antibody (100 μg/mL). After the incubation, 10 μg/mL of AF488-labeled elotuzumab was added to the cells and incubated on ice for 30 minutes. After this incubation, the cells were washed with PBS+1% FBS and binding of AF488-labeled elotuzumab determined by flow cytometry.

human CS1 [4] = biological target: T1, human CS1; test: Flow-cytometry competition assay with AF488-labeled Hu34C3; assay type: binding; details: 293s cells transfected with human CS1; 100 μg/mL test antibody, 10 μg/mL labeled Hu34C3
Method: For the competition assays, transfected 293s cells (300,000 cells per data point) were incubated for 30 min (on ice) with a tenfold excess of unlabeled test antibody (100 μg/mL).

Molecule	Relative reduction in the risk of disease progression or death [1] [%]	Competition with AF488-labeled PDL241 for binding (human CS1 [2])	Competition with AF488-labeled Luc34.3.8 for binding (HuCS1)	Competition with AF488-labeled elotuzumab for binding (human CS1 [3])	Competition with AF488-labeled Hu34C3 for binding (human CS1 [4])
B1	30				
B2		do not compete with, and bind different epitopes than, PDL241	do not compete with, and bind different epitopes than, Luc34.3.8	do not compete with, and bind different epitopes than, elotuzumab	None of the anti-CS1 antibodies tested (including Hu27A12 and Hu31D2) compete with Hu34C3
B3		do not compete with, and bind different epitopes than, PDL241	do not compete with, and bind different epitopes than, Luc34.3.8	do not compete with, and bind different epitopes than, elotuzumab	None of the anti-CS1 antibodies tested (including Hu27A12 and Hu31D2) compete with Hu34C3
